Reference: patent US8981179B2, “Transgenic non-human animal and uses thereof” (Sanofi, priority 2009, dated 2015)

Target: T1, prokineticin 2 receptor (PROK2R) (Mus musculus, UniProt Q8K458)
T1 construct: endogenous in cells; host or cells: primary cortical neurons, E18, CreLuc mouse lines (187 and others)
Experiment: Primary cortical neurons CreLuc luciferase assay, Gq modulation
Format: cell-based
Excerpt: A general schematic of the workflow for the isolation and compound treatment of primary neuronal cells from the CreLuc model is depicted in FIG. 9. Cortices or other brain subregions are removed from embryos, usually embryonic (E) day 17 or 18, but also as early as E14. The individual neurons are then isolated and plated onto 96 well assay plates. Assays are run either in triplicate or quadruplicate. The assays are run from day 3 in culture up until day 7 or day 10 in culture depending on the expression levels of the target GPCR. Compounds are added to the plates then at a set timepoint, Bright Glo (Promega, Cat #E2610) is added to the plates and the assay is then run on a TopCount or other luminometer.
Primary cell cultures from the CreLuc mice may be used to screen compounds that are capable of modulating Gs coupled receptors. The PROK2R is Gq coupled, therefore, prokineticin 2 (PROK2) which is an agonist for the PROK2R was used to see whether CreLuc mice would be responsive to Gq modulation. […]
The effects of PROK2 peptide on luciferase expression in primary cortical neurons from different CreLuc lines was examined. […] Lines were selected based on earlier experiments which determined inducible luciferase levels in whole brain extracts (data not shown). […] BrightGlo was used for the assay and read on a TopCount. […]

T1 sequence (Q8K458 whole entry): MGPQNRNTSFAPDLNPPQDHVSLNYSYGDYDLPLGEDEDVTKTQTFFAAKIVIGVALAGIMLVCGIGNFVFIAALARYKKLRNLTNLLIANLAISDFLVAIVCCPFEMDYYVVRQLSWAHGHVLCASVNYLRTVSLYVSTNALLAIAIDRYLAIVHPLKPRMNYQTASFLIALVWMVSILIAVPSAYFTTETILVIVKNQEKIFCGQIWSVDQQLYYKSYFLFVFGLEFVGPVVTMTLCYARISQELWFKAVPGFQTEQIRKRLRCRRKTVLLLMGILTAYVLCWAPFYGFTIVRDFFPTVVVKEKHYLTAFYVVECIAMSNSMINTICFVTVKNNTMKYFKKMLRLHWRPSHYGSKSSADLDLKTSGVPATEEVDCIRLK

luciferase levels vs media only control (cortical neurons line 187, day 3, 1 nM and 100 nM, 4 hours and 8 hours): Highly significant increases
luciferase levels in cortical neurons from different CreLuc lines (lines 219 and 175, 1 nM and 100 nM, 4 hours and 24 hours): Statistically significant increases
B1: PROK2: prokineticin 2 peptide (Peprotech), agonist for the PROK2R (protein)
chain: AVITGACDKDSQCGGGMCCAVSIWVKSIRICTPMGKLGDSCHPLTRKVPFFGRRMHHTCPCLPGLACLRTSFNRFICLAQK
